# In patent publication US20250195617A1, “Liquid Pharmaceutical Formulations of CNP Compounds” (Ascendis Pharma Growth Disorders A/S, priority 2022, published 2025):
# Bridges are numbered along the chain shown (N, C = ends). Where no end group is shown, it is not given here.
# Experiment: Storage stability of CNP peptide liquid formulations (F33-45), content and purity by RP-HPLC/MS
# Type: physicochemical
# Details: acetate buffer, 5° C., 6 months, LC-MS
# Method: All excipient stock solutions, except for phenol and m-cresol, were prepared by combining the required excipients in a volumetric flask and filling it up to 90% of the desired volume with water. The pH of the stock solutions was adjusted using 1 M NaOH solution as required and the volume adjusted to the desired volume with water. The stock solutions were filtered through a 0.2 μm PVDF-filter. Stock solutions of phenol (1.75%) and m-cresol (1.05%) were prepared by adding the preservative to the respective excipient stock solution after filtration. Next, the required amount of CNP was dissolved in the required amount of the desired excipient stock solution and the pH was checked and adjusted if needed with 1 M NaOH. The formulations were filtered through a 0.22 μm PVDF filter and the respective preservative stock solution was added. The formulations were aliquoted ready for incubation.
# RP-HPLC/MS to determine the content and purity of CNP (F33-45): Mobile phase A was composed of 0.05% aqueous TFA (v/v) and mobile phase B was composed of 0.04% TFA (v/v) in acetonitrile. A Waters Acquity CSH C18, 130 Å, 1.7 μm, 2.1×100 mm column was used. Flow rate was set to 0.3 ml/min, detection was at a wavelength of 215 nm, the column running temperature was 65° C. and the sample injection load was approx. 3 μg CNP-38 eq. (20 μL of a 0.135 mg/ml sample). Samples were diluted to 0.135 mg/mL with dilution buffer (10 mM succinic acid, 84 g/l trehalose dihydrate, adjusted to pH 5 with 1M Tris). For LCMS the HPLC system was coupled to an LTQ Orbitrap Discovery XL instrument and ESI-MS was performed in the positive mode. The change in content of the TIM, T3M and T6M was determined by peak area comparison to the TO sample. For determination of the purity, all peaks higher than the LOQ (0.10%) and not present in the blank were integrated.
# The influence of the buffering agent, pH, tonicity agent, detergent, and preservative on the stability of CNP-38 was evaluated. For this purpose, nine formulations of CNP-38 were prepared at a concentration of 2 mg/mL and incubated for 6 months (Table 16). One formulation each at pH 4.5 (F33), pH 5.0 (F34) and pH 4.0 (F35) in acetate buffer were prepared. L-methionine was used to prevent the oxidation of the methionine residue in the peptide, trehalose dihydrate was used as a tonicity or isotonicity agent, Poloxamer 188 as a detergent and m-cresol as a preservative. Another formulation at pH 4.5 containing the same excipients was prepared, in which trehalose was switched to mannitol (F37). […] The formulations were incubated at 5° C. To evaluate whether acetate adducts are formed in acetate buffer, the same formulation as in F33 was incubated at accelerated conditions at 25° C. (F33, 25° C.). […]
row,Sequence,formation of acetylated species
1,GLSKGCFGLKLDRIGSMSGLGC [CNP-22],No acetylated peptides
2,PGQEHPNARKYKGANKKGLSKGCFGLKLDRIGSMSGLGC (disulfide 23-39) [PG-CNP-37],No acetylated peptides
3,DLRVDTKSRAAWARLLQEHPNARKYKGANKKGLSKGCFGLKLDRIGSMSGLGC (disulfide 37-53; listed as Homo sapiens) [CNP-53],No acetylated peptides
4,GANKKGLSKGCFGLKLDRIGSMSGLGC (disulfide 11-27) [CNP-27],No acetylated peptides
